Measured values as given in patent US10968255.

Columns and labels:
[1] = molecular target: CH505 TF chimeric SOSIP.III trimer (CH505TFchim.6R.SOSIP.664v4.1) (HIV-1 (CH505 gp120 with BG505 gp41, chimera)); experiment: negative stain EM
[2] = molecular target: BG505 SOSIP.664 gp140 trimer (HIV-1); experiment: negative stain EM
[3] = molecular target: CH505 transmitted/founder (TF) gp120 Env (HIV-1); experiment: SPR, antibody captured, gp120 injected
[4] = molecular target: CH505 transmitted/founder (TF) gp120 Env (HIV-1); experiment: competition ELISA, competitor biotinylated CH241
[5] = molecular target: CH505 transmitted/founder (TF) gp120 Env (HIV-1); experiment: competition ELISA, competitor biotinylated CH240
[6] = molecular target: B41 SOSIP.664 gp140 trimer (HIV-1); experiment: negative stain EM
[7] = molecular target: CH505 TF loop D mutant M8 Env (pseudovirus) (HIV-1); experiment: cell-based or functional assay
[8] = molecular target: CH505 TF loop D mutant M7 Env (pseudovirus) (HIV-1); experiment: cell-based or functional assay
[9] = molecular target: CH505 TF loop D mutant M20 Env (pseudovirus) (HIV-1); experiment: cell-based or functional assay
[10] = molecular target: CH505 TF loop D mutant M9 Env (pseudovirus) (HIV-1); experiment: cell-based or functional assay
[11] = molecular target: CH505 transmitted/founder (TF) gp120 Env (HIV-1); experiment: competition ELISA, blocking of sCD4 binding to CH505 TF gp120
[12] = molecular target: CH505 transmitted/founder (TF) gp120 Env (HIV-1); experiment: competition ELISA, blocking of CH106 binding to CH505 TF gp120

## CH103 Fab
[1]
  binding ratio (CH103 to gp140) (CH103 per gp140): 1
  stoichiometry (Fabs per trimer) (Fabs per trimer): 3
[2]
  stoichiometry (Fabs per trimer) (Fabs per trimer): 3

## CH103 lineage unmutated common ancestor (UCA) (antibody)
[3]
  Kd: 227 nM
  kon: 37000 M⁻¹ s⁻¹

## CH106 (antibody)
[4]
  IC50: 14.3 µg/mL
[5]
  IC50: 2.3 µg/mL

## CH235 Fab
[6]
  stoichiometry (Fabs per trimer) (Fabs per trimer): 2
[2]
  stoichiometry (Fabs per trimer) (Fabs per trimer): 1

## CH235.9 (antibody)
[7]
  neutralization IC50, TZM-bl pseudovirus assay: 0.66 µg/mL

## CH235.9 Fab
[6]
  stoichiometry (Fabs per trimer) (Fabs per trimer): 3
[2]
  stoichiometry (Fabs per trimer) (Fabs per trimer): 3

## CH235.9 N30T (antibody)
[7]
  fold increase of the neutralization IC50 against CH235.9: 37 fold
  neutralization IC50, TZM-bl pseudovirus assay: 24.3 µg/mL
[8]
  neutralization IC50, TZM-bl pseudovirus assay: > 44 µg/mL
[9]
  neutralization IC50, TZM-bl pseudovirus assay: > 44 µg/mL
[10]
  neutralization IC50, TZM-bl pseudovirus assay: > 44 µg/mL

## CH235.12 Fab
[6]
  stoichiometry (Fabs per trimer) (Fabs per trimer): 3
[2]
  stoichiometry (Fabs per trimer) (Fabs per trimer): 3

## CH241 (antibody)
[11]
  IC50: 1.5 µg/mL
[3]
  Kd: 0.7 nM
  koff: 0.00033 s⁻¹
[12]
  IC50: 2.6 µg/mL
